In US5846764, “Materials and methods relating to proteins that interact with casein kinase I” (ICOS Corporation, dated 1998):

How the values were obtained:
[1] = target: lexA::HRR25 fusion (pBTM116::HRR25) (E. coli; S. cerevisiae) (UniProt P0A7C2); experiment: yeast two-hybrid (lexA bait, GAL4 prey), liquid β-galactosidase assay
[2] = target: lexA::HRR25 non-catalytic domain fragment (pBTM116::Non-catalytic) (E. coli; S. cerevisiae) (UniProt P0A7C2); experiment: as above
[3] = target: lexA::HRR25 K→R fusion (pBTM116::HRR25K→R) (E. coli; S. cerevisiae) (UniProt P0A7C2); experiment: as above
[4] = target: lexA::HRR25 fusion (pBTM116::HRR25) (E. coli; S. cerevisiae) (UniProt P0A7C2); experiment: yeast two-hybrid (lexA bait, GAL4 activation domain prey), liquid β-galactosidase assay, normalized to vector alone
[5] = target: lexA::HRR25 catalytic domain fragment (pBTM116::Kinase domain) (E. coli; S. cerevisiae) (UniProt P0A7C2); experiment: as above
Chain of lexA::HRR25 catalytic domain fragment (pBTM116::Kinase domain) (E. coli; S. cerevisiae) (P0A7C2 1-202, tags or fused parts left off): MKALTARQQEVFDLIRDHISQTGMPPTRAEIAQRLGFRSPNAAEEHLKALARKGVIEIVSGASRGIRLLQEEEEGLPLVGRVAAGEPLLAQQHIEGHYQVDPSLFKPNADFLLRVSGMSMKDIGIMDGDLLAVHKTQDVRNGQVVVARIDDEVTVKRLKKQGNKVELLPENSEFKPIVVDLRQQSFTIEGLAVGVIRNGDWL

[6] = target: lexA::HRR25 K→R fusion (pBTM116::HRR25K→R) (E. coli; S. cerevisiae) (UniProt P0A7C2); experiment: as above
[7] = target: lexA::NUF1 fusion (pBTM116::NUF1) (E. coli; S. cerevisiae) (UniProt P0A7C2); experiment: as above
[8] = target: T1, lexA DNA binding domain alone (pBTM116 vector) (E. coli, UniProt P0A7C2); experiment: as above
[9] = target: lexA::HRR25 non-catalytic domain fragment (pBTM116::Non-catalytic) (E. coli; S. cerevisiae, UniProt P0A7C2); experiment: as above
[10] = target: T1, lexA DNA binding domain alone (pBTM116 …); experiment: yeast two-hybrid, liquid β-galactosidase assay
Method: To construct pairwise combinations between pBTM116-based plasmids and pGAD-based plasmids, yeast strains of opposite mating types were replica plated in a crossed pattern on YEPD medium (Bio101) and were allowed to mate for 18 hours. Diploid cells were selected by a second replica plating onto SD-leucine, -tryptophan medium to select for cells that contained both pBTM116-type and pGAD-type plasmids. The isolated diploids were grown in liquid SD-leucine, -tryptophan medium to a cell density of 2×10^7 cells/ml and the level of interaction of the kinase and interacting protein, as determined by beta-galactosidase activity, was determined from cells that were lysed by adding 3 drops of chloroform and 50 µl of 0.1 % SDS to 2×10^6 cells suspended in 0.1 ml of Z buffer and subsequently adding 0.2 ml of the chromogenic substrate o-nitrophenyl-β-D-galactoside. β-galactosidase assays were terminated by adding 0.5 ml of 1M Na_2CO_3 and activity was measured by reading absorbance at 420 nm using a Milton Roy spectrophotometer (Rochester, N.Y.). In this assay, the degree of protein/protein interaction is directly proportional to the level of β-galactosidase activity. […] Values were normalized to vector alone controls.

[11] = target: lexA::HRR25 non-catalytic domain fragment (pBTM116::Non-catalytic) (E. coli; S. cerevisiae) (UniProt P0A7C2); experiment: yeast two-hybrid (lexA bait, GAL4 activation domain prey), liquid β-galactosidase assay, normalized to vector alone

Molecule | units of β-galactosidase activity [1] [units] | units of β-galactosidase activity [2] [units] | units of β-galactosidase activity [3] [units] | relative β-galactosidase activity [4] | relative β-galactosidase activity [5] | relative β-galactosidase activity [6] | relative β-galactosidase activity [7] | relative β-galactosidase activity [8] | relative β-galactosidase activity [9] | binding result [10] | relative β-galactosidase activity [11]
GAL4::CIN8 fusion (pGAD::CIN8) (from UniProt P27895) | 5 | < 0.1 | 28 | – | – | – | – | – | – | – | –
GAL4 activation domain::TIH4 library clone (pGAD::TIH4) (protein) RRMISELKNRSNIGEPLTKSSNESTYKDIKATGNDGDPNLALMRAENRVLKYKLENCEKLLDKDVVDLQDSEIMEIVEMLPFEVGTLLETKFQGLESQIRQYRKYTQKLEDKIMALEKSGHTAMSLTGCDGTEVIELQKMLERKDKMIEALQSAKRLRDRALKPLINTQQSPHPVVDNDK | 70 | – | 66 | – | – | – | – | – | – | – | –
GAL4 activation domain::TIH1 library clone (pGAD::TIH1) (other) DQLKSYAEEQLKLLLGITKEEQIDPGRELLNMLHTAVQANSNNNAVSNGQVPSSQELQHLKEQSGEHNQQKDQQSSFSSQQQPSIFPSLSEPFANNKNVIPPTMPMANVFMSNPQLFATMNGQPFAPFPFMLPLTNNSNSANPIPTPVPPNFNAPPNPMAFGVPNMHNLSGPAVSQPFSLPPAPLPRDSGYSSSSPGQLLDILNSKKPDSNVQSSKKPKLKILQRGTDLNSLKQNNNDETAHSNSQALLDLLKKPTSSQKIHASKPDTSFLPNDSVSGIQDAEYEDFESSSDEEVETARDERNSLNVDIGVNVMPSEKDSRRSQKEKPRNDASKTNLNASAESNSVEWGAG | – | – | – | 850 | 820 | 100 | < 5 | < 5 | – | no binding (tested: <5) | < 5

The remaining lines, values ahead:

units of β-galactosidase activity [1] [units] | units of β-galactosidase activity [2] [units] | units of β-galactosidase activity [3] [units] | relative β-galactosidase activity [4] | relative β-galactosidase activity [5] | relative β-galactosidase activity [6] | relative β-galactosidase activity [7] | relative β-galactosidase activity [8] | relative β-galactosidase activity [9] | binding result [10] | relative β-galactosidase activity [11] | Molecule
10 | < 0.1 | 16 | – | – | – | – | – | – | – | – | GAL4::KIP2 fusion (pGAD::KIP2) (from UniProt P28743)
16 | 70 | 55 | – | – | – | – | – | – | – | – | GAL4::KIP1 fusion (pGAD::KIP1) (from UniProt P28742)
15 | 60 | 75 | – | – | – | – | – | – | – | – | GAL4::KAR3 fusion (pGAD::KAR3) (from UniProt P17119)
– | – | – | 650 | 160 | 150 | < 5 | < 5 | < 5 | no binding (tested: <5) | – | GAL4 activation domain::TIH2 library clone (pGAD::TIH2) (other) RSSSNLSLDSLSKMSGSGNNNTSNNQLFSTLMNGINANSMMNSPMNNTINNNSSNNNNSGNIILNQPSLSAQHTSSSLYQTNVNNQAQMSTERFYAPLPSTSTLPLPPQQLDFNDPDTLEIYSQLLLFKDREKYYYELAYPMGISASHKRIINVLCSYLGLVEVYDPRFIIIRRKILDHANLQSHLQQQGQMTSAHPLQPNSTGGSMNRSQSYTSLLQAHAAAAANSISNQAVNNSSNSNTINSNNGNGNNVIINNNSASSTPKISSQGQFSMQPTLTSPKMNIHHSSQYNSADQPQQPQPQTQQNVQSAAQQQQSFLRQQATLTPSSRIPSGYSANHYQINSVNPLLRNSQISPPNSQIPINSQTLSQAQPPAQSQTQQRVPVAYQNASLSSQQLYNLNGPSSANSQSQLLPQHTNGSVHSNFSYQSYHDESMLSAHNLNSADLIYKSLSHSGLDDGLEQGLNRSLSGLDLQNQNKKNLW
– | – | – | 100 | 130 | 30 | 10 | < 5 | – | no binding (tested: <5) | < 5 | GAL4 activation domain::TIH3 library clone (pGAD::TIH3) (other) IKPMVESNCKNGQISATKDLVKLVEEFVEKYVELSKEKADTLKPLPSVTSFGSPRKVAAPELSMVQPESKPEAEAEISEIGSDRWRFNWVNIIILVLLVLNLLYLMKLNKKMDKLTNLMTHKDEVVAHATLLDIPAQVQWSRPRRGDVL
